Assay [1] addresses T1, full-length isoform 2 ECD of human CD96 with a C89S mutation (His-tagged) (human, UniProt P40200 22-519).
T1 construct: also called His-tagged isoform 2 of human CD96 with a C89S mutation; human CD96 extracellular domain isoform 2 C89S
T1 sequence: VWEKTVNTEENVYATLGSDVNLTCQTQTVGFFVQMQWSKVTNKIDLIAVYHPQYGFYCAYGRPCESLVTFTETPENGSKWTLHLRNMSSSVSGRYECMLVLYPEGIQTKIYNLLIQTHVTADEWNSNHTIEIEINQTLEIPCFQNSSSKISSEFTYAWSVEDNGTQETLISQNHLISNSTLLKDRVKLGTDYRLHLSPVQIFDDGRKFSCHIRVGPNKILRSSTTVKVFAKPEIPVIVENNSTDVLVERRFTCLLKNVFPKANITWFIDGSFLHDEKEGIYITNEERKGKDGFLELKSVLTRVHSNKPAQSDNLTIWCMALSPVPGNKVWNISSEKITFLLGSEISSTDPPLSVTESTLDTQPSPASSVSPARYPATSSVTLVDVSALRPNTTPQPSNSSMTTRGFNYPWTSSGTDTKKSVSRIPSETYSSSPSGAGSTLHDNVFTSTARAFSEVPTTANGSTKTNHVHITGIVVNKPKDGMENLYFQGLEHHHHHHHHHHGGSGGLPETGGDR
In words: SPR Biacore T200, geomean of experiments #1 and #2. The protocol:
(§1) Briefly, surface plasmon resonance experiments were performed using a Biacore T200 instrument, and the association rate (kₐ), dissociation rate (kd), and dissociation constant (KD) were calculated from each experiment using a 1:1 binding model with Biacore T200 Evaluation Software.
(§2) Multispecific molecules were captured using a 30-sec injection at a flow rate of 10 μl/min to reach about 350 resonance units (RUs). […] The sensor chip was regenerated between cycles with two 30-sec injections of 10 mM glycine, pH 1.5. Sensorgrams were evaluated and fit to a simple Langmuir 1:1 interaction model using the global data analysis option of BIAevaluation 3.0 software. Data quality was verified by visually inspecting deviations and curve fitting, and by evaluating the parameters of Rₘₐₓ, Chi2, and Tc.
Background: In SPR one partner is held on a chip, and binding of the other changes the refractive index at the surface.

Assay [2] deals with T2, full-length ECD of cynomolgus monkey TIGIT (His-tagged) (cynomolgus monkey).
T2 construct: also called His-tagged cynomolgus monkey TIGIT; cyno TIGIT extracellular domain
In words: SPR Biacore T200, geomean of experiments #1 and #2. As for the experimental part:
as §1, §2

Assay [3] deals with T3, wild type full-length human CD96 isoform 1 expressed on CHO cells (human, UniProt P40200 22-585).
T3 construct: whole, on cells; also called human CD96-CHO (isoform 1)
T3 sequence (looked up): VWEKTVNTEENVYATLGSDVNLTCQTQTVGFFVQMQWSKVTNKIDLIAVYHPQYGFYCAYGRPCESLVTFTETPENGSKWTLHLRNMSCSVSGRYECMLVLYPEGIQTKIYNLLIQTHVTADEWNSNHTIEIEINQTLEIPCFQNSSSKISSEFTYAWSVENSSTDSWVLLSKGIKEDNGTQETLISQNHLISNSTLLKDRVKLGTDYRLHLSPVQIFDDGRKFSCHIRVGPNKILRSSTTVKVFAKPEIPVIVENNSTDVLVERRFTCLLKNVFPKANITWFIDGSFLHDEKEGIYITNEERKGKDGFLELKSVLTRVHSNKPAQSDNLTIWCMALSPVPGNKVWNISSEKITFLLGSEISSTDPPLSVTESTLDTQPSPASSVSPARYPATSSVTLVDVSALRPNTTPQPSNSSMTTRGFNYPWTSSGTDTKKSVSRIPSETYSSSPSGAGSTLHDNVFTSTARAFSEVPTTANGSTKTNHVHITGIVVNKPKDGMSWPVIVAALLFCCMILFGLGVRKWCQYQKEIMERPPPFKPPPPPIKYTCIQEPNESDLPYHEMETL
Nature of the assay: flow cytometry, human CD96 (isoform 1) CHO cells, 1 experiment. The protocol:
For the antibody binding assay, a frozen aliquot of human CD96-CHO cells (isoform 1 or isoform 2) was thawed at 37° C. and then transferred to a tube containing DPBS supplemented with 0.5% Bovine Serum Albumin and 0.05% Sodium Azide (FACS Buffer). Cells were centrifuged at 300 g for five minutes. The supernatant was discarded, and cells resuspended in FACS buffer were seeded in a 96-well U-bottom tissue culture plate at a density of 2×10⁵ cells per well in 50 μL. In a separate microplate, a 2× concentrated intermediate stock of each antibody was prepared. Antibodies were serially diluted 1-to-3 in FACS buffer. A total of 11 working dilutions ranging from 60 μg/mL to 0.001 μg/mL were prepared. Fifty microlitres of each dilution were then transferred to the microplate containing human CD96-CHO cells. The cells were then incubated for 45 minutes at 4° C. […] After a 30-minute incubation on ice, the cells were washed twice with cold FACS Buffer, and the cells were analyzed by flow cytometry (BD LSR Fortessa Flow Cytometer). The data were analyzed using the FlowJo software by sequentially gating the FSC-A vs. SSC-A, and SSC-H vs. SSC-A. Mean fluorescence intensity (MFI) values for PE were calculated, and the data were plotted by GraphPad Prism software.
A general note: In flow cytometry, cells or beads pass a laser one at a time.

Assay [4] has as its target T4, wild type full-length cynomolgus monkey CD96 isoform 2 expressed on CHO cells (cynomolgus monkey, UniProt A0A2K5TWV6 22-569).
T4 construct: whole, on cells; also called cynomolgus CD96-CHO cells; cynomolgus CD96-CHO (isoform 2)
T4 sequence: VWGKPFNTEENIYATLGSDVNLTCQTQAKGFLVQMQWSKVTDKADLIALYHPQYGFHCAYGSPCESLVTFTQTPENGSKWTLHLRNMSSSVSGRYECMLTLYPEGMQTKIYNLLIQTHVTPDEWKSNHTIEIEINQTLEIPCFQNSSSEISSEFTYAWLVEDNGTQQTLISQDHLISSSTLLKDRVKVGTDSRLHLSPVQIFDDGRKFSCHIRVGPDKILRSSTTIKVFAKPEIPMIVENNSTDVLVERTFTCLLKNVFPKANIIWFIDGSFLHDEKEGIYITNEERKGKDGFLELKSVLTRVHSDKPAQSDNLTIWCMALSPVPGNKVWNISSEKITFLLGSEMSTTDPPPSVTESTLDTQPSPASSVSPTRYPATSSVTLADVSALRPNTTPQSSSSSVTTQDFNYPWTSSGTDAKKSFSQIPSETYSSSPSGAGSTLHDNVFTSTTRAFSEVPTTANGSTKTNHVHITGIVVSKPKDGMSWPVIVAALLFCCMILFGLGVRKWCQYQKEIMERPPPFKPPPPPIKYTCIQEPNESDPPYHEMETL
Nature of the assay: flow cytometry on CHO cells expressing cynomolgus CD96 isoform 2, PE anti-human IgG Fc detection.

In assay [5] the target is T5, wild type full-length cynomolgus monkey TIGIT expressed on CHO cells (cynomolgus monkey, UniProt A0A7N9I9V4 89-312).
T5 construct: whole, on cells; also called cynomolgus TIGIT-CHO cells
Nature of the assay: flow cytometry, cynomolgus TIGIT CHO cells, geomean of 2 experiments.

T5 sequence (A0A7N9I9V4 entry or part of it): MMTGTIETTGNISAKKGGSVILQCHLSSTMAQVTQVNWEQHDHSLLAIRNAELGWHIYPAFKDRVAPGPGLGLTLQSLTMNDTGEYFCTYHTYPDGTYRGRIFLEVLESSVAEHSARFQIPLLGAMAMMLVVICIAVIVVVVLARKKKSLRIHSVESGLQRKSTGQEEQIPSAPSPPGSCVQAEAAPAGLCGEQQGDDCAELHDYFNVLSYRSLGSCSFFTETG

B1: anti-TIGIT×CD96 multispecific molecule BA123 (bispecific antibody, human IgG1, kappa, lambda)
heavy 1: QVQLVQSGAEVKKPGASVKVSCKASGYTFTSYGISWVRQAPGQGLEWMGWISAYNANTNYAQKLQGRVTMTTDTSTSTAYMELRSLRSDDTAVYYCARSAGVLGGMDVWGRGTLVTVSSASTKGPSVFPLAPSSKSTSGGTAALGCLVKDYFPEPVTVSWNSGALTSGVHTFPAVLQSSGLYSLSSVVTVPSSSLGTQTYICNVNHKPSNTKVDKRVEPKSCDKTHTCPPCPAPELLGGPDVFLFPPKPKDTLMISRTPEVTCVVVDVSHEDPEVKFNWYVDGVEVHNAKTKPREEQYNSTYRVVSVLTVLHQDWLNGKEYKCKVSNKALPAPIEKTISKAKGQPREPQVYTLPPSREEMTKNQVSLSCAVKGFYPSDIAVEWESNGQPENNYKTTPPVLDSDGSFFLVSKLTVDKSRWQQGNVFSCSVMHEALHNHYTQKSLSLSPG
light 1: not shown
heavy 2: EVQLVQSGAEVKKPGSSVKVSCKASGYTFASYGISWVRQAPGQGLEWMGGITPFFNRVDVAEKFQGRVTITADKSTSTAYIELSSLRSEDTAVYYCARDLRRGGVGDAFDIWGRGTLVTVSSASTKGPSVFPLAPSSKSTSGGTAALGCLVKDYFPEPVTVSWNSGALTSGVHTFPAVLQSSGLYSLSSVVTVPSSSLGTQTYICNVNHKPSNTKVDKRVEPKSCDKTHTCPPCPAPELLGGPDVFLFPPKPKDTLMISRTPEVTCVVVDVSHEDPEVKFNWYVDGVEVHNAKTKPREEQYNSTYRVVSVLTVLHQDWLNGKEYKCKVSNKALPLPEEKTISKAKGQPREPQVYTLPPSREEMTKNQVSLWCLVKGFYPSDIAVEWESNGQPENNYKTTPPVLDSDGSFFLYSKLTVDKSRWQQGNVFSCSVMHEALHNHYTQKSLSLSPG
light 2: QSALTQPRSVSGSPGQSVTISCTGTSPDVGSHAYRSWYQQHPGKAPKLMIYEVSYRPSGVSNRFSGSKSGNTASLTISGLQAEDEADYYCSSYPPSSATVFGAGTKLTVLGQPKAAPSVTLFPPSSEELQANKATLVCLISDFYPGAVTVAWKADSSPVKAGVETTTPSKQSNNKYAASSYLSLTPEQWKSHRSYSCQVTHEGSTVEKTVAPTEC
notes: copies: 1 + 1 + 1 + 1
For orientation: Kd means the equilibrium constant for the complex coming apart. In general, EC50 refers to the concentration that produces a half-maximal response. Usually EC50 (read off the curve) stands for the concentration giving half of the maximal effect. For B1, the Kd in assay [1] is 81.9 nM; in assay [2], 4.5 nM. This molecule also yielded an EC50 in assay [3] of 0.0113 µg/mL. For the same molecule, the half-maximal effective concentration (EC50 (read off the curve)) in assay [4] was roughly 1 µg/mL.

B2: anti-TIGIT monospecific antibody BA148 (antibody, human IgG1, lambda)
heavy: EVQLVQSGAEVKKPGSSVKVSCKASGYTFASYGISWVRQAPGQGLEWMGGITPFFNRVDVAEKFQGRVTITADKSTSTAYIELSSLRSEDTAVYYCARDLRRGGVGDAFDIWGRGTLVTVSSASTKGPSVFPLAPSSKSTSGGTAALGCLVKDYFPEPVTVSWNSGALTSGVHTFPAVLQSSGLYSLSSVVTVPSSSLGTQTYICNVNHKPSNTKVDKRVEPKSCDKTHTCPPCPAPELLGGPDVFLFPPKPKDTLMISRTPEVTCVVVDVSHEDPEVKFNWYVDGVEVHNAKTKPREEQYNSTYRVVSVLTVLHQDWLNGKEYKCKVSNKALPLPEEKTISKAKGQPREPQVYTLPPSREEMTKNQVSLTCLVKGFYPSDIAVEWESNGQPENNYKTTPPVLDSDGSFFLYSKLTVDKSRWQQGNVFSCSVMHEALHNHYTQKSLSLSPGK
light: QSALTQPRSVSGSPGQSVTISCTGTSPDVGSHAYRSWYQQHPGKAPKLMIYEVSYRPSGVSNRFSGSKSGNTASLTISGLQAEDEADYYCSSYPPSSATVFGAGTKLTVLGQPKAAPSVTLFPPSSEELQANKATLVCLISDFYPGAVTVAWKADSSPVKAGVETTTPSKQSNNKYAASSYLSLTPEQWKSHRSYSCQVTHEGSTVEKTVAPTEC
notes: IgG1; also called anti-TIGIT IgG1 antibody BA148
B2 returned an EC50 in assay [5] of 0.0534 µg/mL.

B3: anti-TIGIT×CD96 multispecific molecule BA127 (bispecific antibody, human IgG1, kappa, lambda)
heavy 1: QVQLVQSGAEVKKPGASVKVSCKASGYTFTTYALHWVRQAPGQRLEWMGWINTGSGDTKYSQKFQGRVTITRDTSASTAYMELSSLRSEDTAVYYCARSLGVYYGMDVWGQGTLVTVSSASTKGPSVFPLAPSSKSTSGGTAALGCLVKDYFPEPVTVSWNSGALTSGVHTFPAVLQSSGLYSLSSVVTVPSSSLGTQTYICNVNHKPSNTKVDKRVEPKSCDKTHTCPPCPAPELLGGPDVFLFPPKPKDTLMISRTPEVTCVVVDVSHEDPEVKFNWYVDGVEVHNAKTKPREEQYNSTYRVVSVLTVLHQDWLNGKEYKCKVSNKALPAPIEKTISKAKGQPREPQVYTLPPSREEMTKNQVSLSCAVKGFYPSDIAVEWESNGQPENNYKTTPPVLDSDGSFFLVSKLTVDKSRWQQGNVFSCSVMHEALHNHYTQKSLSLSPG
light 1: not shown
heavy 2: EVQLVQSGAEVKKPGSSVKVSCKASGYTFASYGISWVRQAPGQGLEWMGGITPFFNRVDVAEKFQGRVTITADKSTSTAYIELSSLRSEDTAVYYCARDLRRGGVGDAFDIWGRGTLVTVSSASTKGPSVFPLAPSSKSTSGGTAALGCLVKDYFPEPVTVSWNSGALTSGVHTFPAVLQSSGLYSLSSVVTVPSSSLGTQTYICNVNHKPSNTKVDKRVEPKSCDKTHTCPPCPAPELLGGPDVFLFPPKPKDTLMISRTPEVTCVVVDVSHEDPEVKFNWYVDGVEVHNAKTKPREEQYNSTYRVVSVLTVLHQDWLNGKEYKCKVSNKALPLPEEKTISKAKGQPREPQVYTLPPSREEMTKNQVSLWCLVKGFYPSDIAVEWESNGQPENNYKTTPPVLDSDGSFFLYSKLTVDKSRWQQGNVFSCSVMHEALHNHYTQKSLSLSPG
light 2: QSALTQPRSVSGSPGQSVTISCTGTSPDVGSHAYRSWYQQHPGKAPKLMIYEVSYRPSGVSNRFSGSKSGNTASLTISGLQAEDEADYYCSSYPPSSATVFGAGTKLTVLGQPKAAPSVTLFPPSSEELQANKATLVCLISDFYPGAVTVAWKADSSPVKAGVETTTPSKQSNNKYAASSYLSLTPEQWKSHRSYSCQVTHEGSTVEKTVAPTEC
notes: Anti-CD96 arm = BA139, anti-TIGIT arm = BA150; copies: 1 + 1 + 1 + 1
With B3, the Kd was 19.6 nM in assay [1] and 4 nM in assay [2]. In assay [3], the EC50 turned out to be 0.0489 µg/mL.
